# Results from the DeepSol protein solubility set.
# Experiment: soluble on expression in E. coli; label from the status in PepcDB or PDB records
row,Sequence,soluble on expression in E. coli
1,MSLSRIIMLIPTGTSVGLTSVSLGVIRAMERKGVRLSVFKPIAQPRTGGDAPDQTTTIVRANSSTTTAAEPLKMSYVEGLLSSNQKDVLMEEIVANYHANTKDAEVVLVEGLVPTRKHQFAQSLNYEIAKTLNAEIVFVMSQGTDTPEQLKERIELTRNSFGGAKNTNITGVIVNKLNAPVDEQGRTRPDLSEIFDDSSKAKVNNVDPAKLQESSPLPVLGAVPWSFDLIATRAIDMARHLNATIINEGDINTRRVKSVTFCARSIPHMLEHFRAGSLLVTSADRPDVLVAACLAAMNGVEIGALLLTGGYEMDARISKLCERAFATGLPVFMVNTNTWQTSLSLQSFNLEVPVDDHERIEKVQEYVANYINADWIDSLTATSERSRRLSPPAFRYQLTELARKAGKRIVLPEGDEPRTVKAAAICAERGIATCVLLGNPAEINRVAASQGVELGAGIEIVDPEVVRESYVGRLVELRKNKGMTETVAREQLEDNVVLGTLMLEQDEVDGLVSGAVHTTANTIRPPLQLIKTAPGSSLVSSVFFMLLPEQVYVYGDCAINPDPTAEQLAEIAIQSADSAAAFGIEPRVAMLSYSTGTSGAGSDVEKVREATRLAQEKRPDLMIDGPLQYDAAVMADVAKSKAPNSPVAGRATVFIFPDLNTGNTTYKAVQRSADLISIGPMLQGMRKPVNDLSRGALVDDIVYTIALTAIQSAQQQEGHHHHHH,not soluble
2,MASIKSYKLKNGQERWEYFVSNGRSNGTGRQQKIHKRGFRSHKEALKAAKIIEGQIASEEFVKENPQKMTISKFMNIWINEYKNNVKEGSRIVYRDAIRMYIDPYIGNYQLNKYKPADHQKFINSLFTNKELGKSKNGLSYNTVKIVNAALSNAFKKAQKLGYIKSNPTYFVEFPLDKVKEKTNKEKKLEFYTLEQENLFLDTARNFDDFMWYVFFLIIFDLGLRKGEVMALRWFNFDFRDNILTFDKQRLYRKEQPGQVILDDVKTDAGKRSLKMTNRVRNSVLELYSINYDLTSNVLPMTNSNQDFLFINHRGKNVGLPIRQRSVDTAWHRIIQKANLPKIRIHDGRHTNAARLRQAGVPLEDIKDMLGHKNVKTTEIYAHVSPEVKERAVNKLELYQMQHKKSGN,not soluble
3,PETLVKVKDAEDQLCRTSHRPCRVGYIELDLNSGKILESFRPEERFPMMSTFKVLLCGAVLSRIDAGQEQLGRRIHYSQNDLVKYSPVTEKHLTDGMTVRELCSAAITMSDNTAANLLLTTIGGPKELTAFLHNMGDHVTRLDRWEPELNEAIPNDERDTTMPVAMATTLRKLLTGELLTLASRQQLIDWMEADKVAGPLLRSALPAGWFIADKSGAGRRGSRGIIAALGPDGKPSRIVVIYTTGSRKKTDERNRQIAEIGASLIKHWGLEQKLISEEDLNSAVDHHHHHH,soluble
4,MGSDKIHHHHHHMIYIGLTGWGDHDELYTMGTKPSEKLYTYGSHFPTVEVDSSFYAIQPKRNMEKWASDTPDCFRFVVKAYQGLTGHQRGEIPFSSKEDMFAAFVESLQPLLESNKLAMVLFQFPPWFDCTKEHVRYLRYCKQQMGKIPVALEFRHQSWFRPSVRERTLSFMREEGWIHSICDEPQGGEGSVPTVLVPSNEENVLVRFHGRNVEGWRRPQEGNWREVRYLYRYSKEELAEWAEHLKQLAAQVKDVYVLFNNNSGGDAAANAKQMLELLEIEYHGLTPKQLNLFE,not soluble
5,MSFQEIPIIDLQEAFDPATRSKFLEEVRDAIINVGFLLLKNYESLGPTEEDLQSIKQQAIEFFALPAKEKLQCEMLNSPHFLGYTRLANEITASHTDWREQIDLATELPAPKEGEPLYKNIEGPNLWPNPEVIPKFRPTIERFIEKMTALSNVFKDLVAESIGVDPKALNRYFKENQQCKMKLIAYPDVSELDGTKSAALDDTPETNQGVEPHRDSDLITYIYQATEHQNSLQVQNFQGHWITVPNIPGHLVVNNGQTLQAITGGVAKATIHRVLVPEKGTGTRISIPFFQTIDLDSSKGVVDNLPQEVIDLKNERDKKIKDWGVDTGFQFEPDVSKEPIGHAVFRNRIKSHQDVAKKWYPDVLKSVLQEYTH,soluble
6,MAKGDVITLNFETFVDSDTQVKVTRLTPTDVICHRNYFYQKCFTQDGKKLLFAGDFDGNRNYYLLNLETQQAVQLTEGKGDNTFGGFISTDERAFFYVKNELNLMKVDLETLEEQVIYTVDEEWKGYGTWVANSDCTKLVGIEILKRDWQPLTSWEKFAEFYHTNPTCRLIKVDIETGELEVIHQDTAWLGHPIYRPFDDSTVGFCHEGPHDLVDARMWLVNEDGSNVRKIKEHAEGESCTHEFWIPDGSAMAYVSYFKGQTDRVIYKANPETLENEEVMVMPPCSHLMSNFDGSLMVGDGCDAPVDVADADSYNIENDPFLYVLNTKAKSAQKLCKHSTSWDVLDGDRQITHPHPSFTPNDDGVLFTSDFEGVPAIYIADVPESYKHLEHHHHHH,soluble
